For test [1], the target named is mouse Cdt1^172-368 (mouse) (UniProt Q8R4E9). The test is described as follows: ITC; MicroCal ITC200, 18 °C; 20 mM Na-HEPES pH 7.5, 300 mM NaCl, 7 mM β-mercaptoethanol; 17 injections of Geminin (WT 0.432 mM, AWA 0.297 mM) into 200 µL Cdt1 (0.044 mM). For orientation: In ITC the heat of successive injections is recorded.
Test [2] has as its target T1, mouse Cdt1^172-368 (mouse, UniProt Q8R4E9 172-368).
T1 chain: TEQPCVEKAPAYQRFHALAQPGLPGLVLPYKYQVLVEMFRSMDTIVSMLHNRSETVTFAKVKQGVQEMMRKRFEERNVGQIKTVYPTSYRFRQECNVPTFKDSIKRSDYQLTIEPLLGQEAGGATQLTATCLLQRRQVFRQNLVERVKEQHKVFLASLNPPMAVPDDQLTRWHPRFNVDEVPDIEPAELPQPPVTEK
The experiment in a line: ITC.

Test [3] concerns the target T2, mouse Cdt1^172-368 (mouse, UniProt Q8R4E9 172-368).
T2 construct: Cdt1, mouse, residues 172-368; Inserted between the NdeI and KpnI sites of pET Duet 1; source: E. coli BL21, purified, dialyzed
T2 sequence (looked up): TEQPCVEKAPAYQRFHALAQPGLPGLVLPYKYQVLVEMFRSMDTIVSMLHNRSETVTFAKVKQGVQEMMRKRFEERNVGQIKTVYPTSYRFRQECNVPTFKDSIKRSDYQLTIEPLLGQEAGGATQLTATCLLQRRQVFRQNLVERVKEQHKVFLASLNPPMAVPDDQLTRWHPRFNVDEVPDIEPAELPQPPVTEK
The test is described as follows: ITC; MicroCal ITC200, 18 °C; 20 mM Na-HEPES pH 7.5, 300 mM NaCl, 7 mM β-mercaptoethanol; 17 injections of Geminin (WT 0.432 mM, AWA 0.297 mM) into 200 µL Cdt1 (0.044 mM). The following applies: both partners purified.

B1: mouse Geminin^79-157 AWA (domain or fragment)
chain: TQEAFDLISKENPSSQAWAEVAEQRRKALYEALKENEKLHKEIEQKDSEIARLRKENKDLAEVAEHVQYMAEVIERLSN
One may read the Kd as the concentration at which binding is half-saturated. A low value points to a tighter complex. In the case of B1, in test [1], the Kd is 0.25 µM. Besides, the Ka in test [2] turned out to be 4e+06 M⁻¹.

B2: mouse Geminin^79-157 wild type (domain or fragment, UniProt O88513 79-157, looked up)
chain: TQEAFDLISKENPSSQYWKEVAEQRRKALYEALKENEKLHKEIEQKDSEIARLRKENKDLAEVAEHVQYMAEVIERLSN
notes: Geminin, mouse, residues 79-157 (methods); Limits differ between methods (79-157) and legend (72-157); also called Geminin^WT; source: E. coli BL21, purified over nickel-NTA agarose, dialyzed
Regarding B2, the Ka in test [2] stood at 3.5e+06 M⁻¹. The molecule also registered a Kd in test [3] of 0.29 µM.

For the origin of these results see publication PMC4488664, “An Inactive Geminin Mutant That Binds Cdt1” (Genes, 2015).
